Data as given in patent US20060134737A1 (VLAAMS INTERUNIVERSITAIR INSTITUUT VOOR BIOTECHNOLOGIE VZW, published 2006).

Molecular target: T1, cMyc-tagged Smurf2 (C716G), ligase inactive point mutant (UniProt Q9HAU4 1-748, limits assumed)
T1 construct: whole, on cells; Expressed from pCAGGS in HEK293T cells; co-immunoprecipitation from lysates; also called cMyc-Smurf2 (C716G); c-myc-Smurf2(C716G); not shown: cMyc tag
Experiment: co-immunoprecipitation of TNF-R2 with utr-1 from HEK293T lysates without cotransfected TRAF2, anti-cMyc Western blot

T1 sequence (Q9HAU4 whole entry C716G): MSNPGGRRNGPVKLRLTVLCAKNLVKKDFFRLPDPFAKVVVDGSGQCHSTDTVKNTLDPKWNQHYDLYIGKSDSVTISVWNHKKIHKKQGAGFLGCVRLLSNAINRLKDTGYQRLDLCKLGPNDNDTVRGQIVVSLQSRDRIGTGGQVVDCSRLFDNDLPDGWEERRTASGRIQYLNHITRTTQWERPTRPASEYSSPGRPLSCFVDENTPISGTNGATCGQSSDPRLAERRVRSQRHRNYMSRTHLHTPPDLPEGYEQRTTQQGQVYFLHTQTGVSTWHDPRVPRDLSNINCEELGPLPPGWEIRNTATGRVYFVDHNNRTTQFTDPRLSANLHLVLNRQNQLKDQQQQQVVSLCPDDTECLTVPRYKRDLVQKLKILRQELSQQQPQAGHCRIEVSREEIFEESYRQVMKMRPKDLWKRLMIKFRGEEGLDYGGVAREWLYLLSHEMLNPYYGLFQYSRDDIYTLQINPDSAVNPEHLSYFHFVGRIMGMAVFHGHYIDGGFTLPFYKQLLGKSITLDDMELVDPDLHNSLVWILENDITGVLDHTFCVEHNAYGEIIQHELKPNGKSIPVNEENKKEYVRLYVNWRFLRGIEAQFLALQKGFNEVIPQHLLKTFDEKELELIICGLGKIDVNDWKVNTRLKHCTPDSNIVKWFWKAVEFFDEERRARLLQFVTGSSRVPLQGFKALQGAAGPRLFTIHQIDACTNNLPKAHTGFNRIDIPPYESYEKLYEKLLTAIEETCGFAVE

binding result: no binding
B1: TNF receptor 2 (TNF-R2) wild type, pcDNAI-hTNF-R2 (receptor, UniProt P20333 23-461, looked up)
chain: LPAQVAFTPYAPEPGSTCRLREYYDQTAQMCCSKCSPGQHAKVFCTKTSDTVCDSCEDSTYTQLWNWVPECLSCGSRCSSDQVETQACTREQNRICTCRPGWYCALSKQEGCRLCAPLRKCRPGFGVARPGTETSDVVCKPCAPGTFSNTTSSTDICRPHQICNVVAIPGNASMDAVCTSTSPTRSMAPGAVHLPQPVSTRSQHTQPTPEPSTAPSTSFLLPMGPSPPAEGSTGDFALPVGLIVGVTALGLLIIGVVNCVIMTQVKKKPLCLQREAKVPHLPADKARGTQGPEQQHLLITAPSSSSSSLESSASALDRRAPTRNQPQAPGVEASGAGEARASTGSSDSSPGGHGTQVNVTCIVNVCSSSDHSSQCSSQASSTMGDTDSSPSESPKDEQVPFSKEECAFRSQLETPETLLGSTEEKPLPLGVPDAGMKPS
notes: also called TNF-R2 WT
